Measurements reported in patent US8461305B2, “L-fucose α1→6 specific lectin” (J-Oil Mills, Inc., priority 2008, dated 2013).

Assay: frontal affinity chromatography (FAC), association constant to PA sugar chains without L-fucose
Assay type: binding
Conditions: 25 degrees C.
Method in brief: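 Lectin coupled via primary amines to NHS-activated sepharose in a miniature column, run in TBS (pH 7.4) at 0.125 ml/min and 25 degrees C. PA sugar chains (3.75 nM or 7.5 nM) applied in excess, with elution monitored by fluorescence (ex 310/em 380 nm). Ka calculated from front-end delay (V−Vo) versus PA rhamnose and effective ligand amount (Bt).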

[1] = Sugar chain No. 728 (as listed in Table 7)

B1: Aleuria aurantia lectin (protein)
chain: PTEFLYTSKIAAISWAATGGRQQRVYFQDLNGKIREAQRGGDNPWTGGSSQNVIGEAKLFSPLAAVTWKSAQGIQIRVYCVNKDNILSEFVYDGSKWITGQLGSVGVKVGSNSKLAALQWGGSESAPPNIRVYYQKSNGSGSSIHEYVWSGKWTAGASFGSTVPGTGIGATAIGPGRLRIYYQATDNKIREHCWDSNSWYVGGFSASASAGVSIAAISWGSTPNIRVYWQKGREELYEAAYGGSWNTPGQIKDASRPTPSLPDTFIAANSSGNIDISVFFQASGVSLQQWQWISGKGWSIGAVVPTGTPAGW
- association constant Ka (Sugar chain No. 001): <1000 M⁻¹
- association constant Ka (Sugar chain No. 002): <1000 M⁻¹
- association constant Ka (Sugar chain No. 003): <1000 M⁻¹
- association constant Ka (Sugar chain No. 004): <1000 M⁻¹
- association constant Ka (Sugar chain No. 005): <1000 M⁻¹
- association constant Ka (Sugar chain No. 006): <1000 M⁻¹
- association constant Ka (Sugar chain No. 007): <1000 M⁻¹
- association constant Ka (Sugar chain No. 008): <1000 M⁻¹
- association constant Ka (Sugar chain No. 009): <1000 M⁻¹
- association constant Ka (Sugar chain No. 010): <1000 M⁻¹
- association constant Ka (Sugar chain No. 011): <1000 M⁻¹
- association constant Ka (Sugar chain No. 012): <1000 M⁻¹
- association constant Ka (Sugar chain No. 013): <1000 M⁻¹
- association constant Ka (Sugar chain No. 014): <1000 M⁻¹
- association constant Ka (Sugar chain No. 101): <1000 M⁻¹
- association constant Ka (Sugar chain No. 103): <1000 M⁻¹
- association constant Ka (Sugar chain No. 104): <1000 M⁻¹
- association constant Ka (Sugar chain No. 105): <1000 M⁻¹
- association constant Ka (Sugar chain No. 107): <1000 M⁻¹
- association constant Ka (Sugar chain No. 108): <1000 M⁻¹
- association constant Ka (Sugar chain No. 301): <1000 M⁻¹
- association constant Ka (Sugar chain No. 304): <1000 M⁻¹
- association constant Ka (Sugar chain No. 305): <1000 M⁻¹
- association constant Ka (Sugar chain No. 307): <1000 M⁻¹
- association constant Ka (Sugar chain No. 308): <1000 M⁻¹
- association constant Ka (Sugar chain No. 313): <1000 M⁻¹
- association constant Ka (Sugar chain No. 314): <1000 M⁻¹
- association constant Ka (Sugar chain No. 323): <1000 M⁻¹
- association constant Ka (Sugar chain No. 501): <1000 M⁻¹
- association constant Ka (Sugar chain No. 502): <1000 M⁻¹
- association constant Ka (Sugar chain No. 503): <1000 M⁻¹
- association constant Ka (Sugar chain No. 504): <1000 M⁻¹
- association constant Ka (Sugar chain No. 701): <1000 M⁻¹
- association constant Ka (Sugar chain No. 702): <1000 M⁻¹
- association constant Ka (Sugar chain No. 703): <1000 M⁻¹
- association constant Ka (Sugar chain No. 704): <1000 M⁻¹
- association constant Ka (Sugar chain No. 705): <1000 M⁻¹
- association constant Ka (Sugar chain No. 706): <1000 M⁻¹
- association constant Ka (Sugar chain No. 707): <1000 M⁻¹
- association constant Ka (Sugar chain No. 708): <1000 M⁻¹
- association constant Ka (Sugar chain No. 709): <1000 M⁻¹
- association constant Ka (Sugar chain No. 710): <1000 M⁻¹
- association constant Ka (Sugar chain No. 711): <1000 M⁻¹
- association constant Ka (Sugar chain No. 712): <1000 M⁻¹
- association constant Ka (Sugar chain No. 713): <1000 M⁻¹
- association constant Ka (Sugar chain No. 715): <1000 M⁻¹
- association constant Ka (Sugar chain No. 716): <1000 M⁻¹
- association constant Ka (Sugar chain No. 717): <1000 M⁻¹
- association constant Ka (Sugar chain No. 724): <1000 M⁻¹
- association constant Ka (Sugar chain No. 725): <1000 M⁻¹
- association constant Ka [1]: <1000 M⁻¹
- association constant Ka (Sugar chain No. 732): <1000 M⁻¹
- association constant Ka (Sugar chain No. 733): <1000 M⁻¹
- association constant Ka (Sugar chain No. 734): <1000 M⁻¹
- association constant Ka (Sugar chain No. 735): <1000 M⁻¹
- association constant Ka (Sugar chain No. 736): <1000 M⁻¹
- association constant Ka (Sugar chain No. 737): <1000 M⁻¹
- association constant Ka (Sugar chain No. 738): <1000 M⁻¹
- association constant Ka (Sugar chain No. 901): <1000 M⁻¹
- association constant Ka (Sugar chain No. 902): <1000 M⁻¹
- association constant Ka (Sugar chain No. 903): <1000 M⁻¹
- association constant Ka (Sugar chain No. 905): <1000 M⁻¹
- association constant Ka (Sugar chain No. 906): <1000 M⁻¹
- association constant Ka (Sugar chain No. 907): <1000 M⁻¹

B2: Lens culinaris agglutinin (protein)
chain 1: TETTSFSITKFSPDQKNLIFQGDGYTTKGKLTLTKAVKSTVGRALYSTPIHIWDRDTGNVANFVTSFTFVIDAPSSYNVADEFTFFIAPVDTKPQTGGGYLGVFNSKEYDKTSQTVAVEFDTFYNAAWDPSNKERHIGIDVNSIKSVNTKSWNLQNGERANVVIAFNAATNVLTVTLTYP
chain 2: VTSYTLNEVVPLKDVVPEWVRIGFSATTGAEFAAHEVHSWSFHSELGGTSSS
- association constant Ka (Sugar chain No. 001): <1000 M⁻¹
- association constant Ka (Sugar chain No. 002): <1000 M⁻¹
- association constant Ka (Sugar chain No. 003): 7200 M⁻¹
- association constant Ka (Sugar chain No. 004): <1000 M⁻¹
- association constant Ka (Sugar chain No. 005): <1000 M⁻¹
- association constant Ka (Sugar chain No. 006): 14000 M⁻¹
- association constant Ka (Sugar chain No. 007): <1000 M⁻¹
- association constant Ka (Sugar chain No. 008): 18000 M⁻¹
- association constant Ka (Sugar chain No. 009): 18000 M⁻¹
- association constant Ka (Sugar chain No. 010): 13000 M⁻¹
- association constant Ka (Sugar chain No. 011): 14000 M⁻¹
- association constant Ka (Sugar chain No. 012): 25000 M⁻¹
- association constant Ka (Sugar chain No. 013): 17000 M⁻¹
- association constant Ka (Sugar chain No. 014): 17000 M⁻¹
- association constant Ka (Sugar chain No. 101): <1000 M⁻¹
- association constant Ka (Sugar chain No. 103): <1000 M⁻¹
- association constant Ka (Sugar chain No. 104): <1000 M⁻¹
- association constant Ka (Sugar chain No. 105): <1000 M⁻¹
- association constant Ka (Sugar chain No. 107): <1000 M⁻¹
- association constant Ka (Sugar chain No. 108): <1000 M⁻¹
- association constant Ka (Sugar chain No. 301): <1000 M⁻¹
- association constant Ka (Sugar chain No. 304): <1000 M⁻¹
- association constant Ka (Sugar chain No. 305): <1000 M⁻¹
- association constant Ka (Sugar chain No. 307): <1000 M⁻¹
- association constant Ka (Sugar chain No. 308): <1000 M⁻¹
- association constant Ka (Sugar chain No. 313): <1000 M⁻¹
- association constant Ka (Sugar chain No. 314): <1000 M⁻¹
- association constant Ka (Sugar chain No. 323): <1000 M⁻¹
- association constant Ka (Sugar chain No. 501): <1000 M⁻¹
- association constant Ka (Sugar chain No. 502): <1000 M⁻¹
- association constant Ka (Sugar chain No. 503): <1000 M⁻¹
- association constant Ka (Sugar chain No. 504): <1000 M⁻¹
- association constant Ka (Sugar chain No. 701): <1000 M⁻¹
- association constant Ka (Sugar chain No. 702): <1000 M⁻¹
- association constant Ka (Sugar chain No. 703): <1000 M⁻¹
- association constant Ka (Sugar chain No. 704): <1000 M⁻¹
- association constant Ka (Sugar chain No. 705): <1000 M⁻¹
- association constant Ka (Sugar chain No. 706): <1000 M⁻¹
- association constant Ka (Sugar chain No. 707): <1000 M⁻¹
- association constant Ka (Sugar chain No. 708): <1000 M⁻¹
- association constant Ka (Sugar chain No. 709): <1000 M⁻¹
- association constant Ka (Sugar chain No. 710): <1000 M⁻¹
- association constant Ka (Sugar chain No. 711): <1000 M⁻¹
- association constant Ka (Sugar chain No. 712): <1000 M⁻¹
- association constant Ka (Sugar chain No. 713): <1000 M⁻¹
- association constant Ka (Sugar chain No. 715): <1000 M⁻¹
- association constant Ka (Sugar chain No. 716): <1000 M⁻¹
- association constant Ka (Sugar chain No. 717): <1000 M⁻¹
- association constant Ka (Sugar chain No. 724): <1000 M⁻¹
- association constant Ka (Sugar chain No. 725): <1000 M⁻¹
- association constant Ka [1]: <1000 M⁻¹
- association constant Ka (Sugar chain No. 732): <1000 M⁻¹
- association constant Ka (Sugar chain No. 733): <1000 M⁻¹
- association constant Ka (Sugar chain No. 734): <1000 M⁻¹
- association constant Ka (Sugar chain No. 735): <1000 M⁻¹
- association constant Ka (Sugar chain No. 736): <1000 M⁻¹
- association constant Ka (Sugar chain No. 737): <1000 M⁻¹
- association constant Ka (Sugar chain No. 738): <1000 M⁻¹
- association constant Ka (Sugar chain No. 901): <1000 M⁻¹
- association constant Ka (Sugar chain No. 902): <1000 M⁻¹
- association constant Ka (Sugar chain No. 903): <1000 M⁻¹
- association constant Ka (Sugar chain No. 905): <1000 M⁻¹
- association constant Ka (Sugar chain No. 906): <1000 M⁻¹
- association constant Ka (Sugar chain No. 907): <1000 M⁻¹
